According to US20170313776A1 (SORRENTO THERAPEUTICS, published 2017):
Changes are numbered by the printed parent chain. Names may count otherwise.

Legend:
[1] = biological target: T1, PD-L1 expressed on CHO-PD-L1 cells (UniProt Q9NZQ7 19-290, limits assumed); assay: flow cytometry on CHO-PD-L1 cells
T1 construct: whole, on cells
Description: (§1) This example illustrates in vitro data for cellular binding EC50 measurements and cell binding specificity. […] The experimental procedure was as follows: CHO-PD-1 cells and CHO-PD-L1 cells were obtained by stably transfecting CHO-K1 cells with PD-1 cDNA ORF clone (Origene RG210364) and PD-L1 cDNA ORF clone (Origene RG213071) respectively. After 2 weeks of Neomycin selection, clones were isolated by Fluorescence-activated cell sorting (FACS) and further expanded. […] For cell binding assays, 50,000 CHO-PD-1 cells, CHO-PD-L1 cells, and ES-2 cells were aliquoted into the wells of a 96-well, v-bottom plate in 100 μl FACS Buffer (PBS+2% FBS). A twelve point, 3× dilution curve of each anti-PD-1 antibody was made in FACS Buffer starting at 50 μg/ml (3.33×10⁻⁷M). Cells were spun down, washed twice with FACS Buffer, and then resuspended in 25 μl of antibody solution in triplicate. After 0.5 hr incubation, cells were washed 1× with FACS Buffer and resuspended in 50 μl PE-conjugated, goat anti-human IgG (γ-chain specific) secondary antibody (Southern Biotech Cat #2040-09). Cells were further incubated for 0.5 hr and then washed 1× with FACS Buffer. Cells were resuspended in 25 μl FACS Buffer and the median fluorescence intensity in the FL2-H channel was determined using the Intellicyt HTFC flow cytometer. Data was analyzed and plotted in Graph Pad Prism using non-linear regression fit.
(§2) Data points on the graph are shown as the median fluorescence intensity (MFI) of positively labeled cells depending on the antibody concentration +/− Std Error.

[2] = biological target: T2, human PD-1 expressed on cells (human, UniProt Q15116 25-288); assay: flow cytometry on CHO-PD-1 cells
T2 construct: whole, on cells; One entry for cell-surface PD-1; also called CHO-PD-1 cells; Jurkat PD-1 cells
Description: as §1, §2

human CD28 (recombinant) = human CD28 (recombinant) (human, UniProt P10747 19-152); assay: ELISA on coated recombinant protein, one antibody concentration (not given)
human ICOS (recombinant) = biological target: T3, human ICOS (recombinant) (human, UniProt Q9Y6W8 21-140, limits assumed); assay: as above
T3 sequence (looked up): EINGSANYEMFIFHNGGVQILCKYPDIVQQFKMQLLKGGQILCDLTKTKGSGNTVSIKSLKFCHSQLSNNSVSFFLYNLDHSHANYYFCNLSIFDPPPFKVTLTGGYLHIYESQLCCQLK

[3] = biological target: human CTLA-4 (recombinant) (human, UniProt P16410 36-161, limits assumed); assay: as above
[4] = biological target: T2, human PD-1 expressed on cells; assay: flow cytometry on Jurkat T cells stably expressing human PD-1
Description: Primary antibody binding to Jurkat PD-1 cells was detected by flow cytometry using either anti-heavy chain or light chain antibodies directly conjugated to fluorochromes (identical binding curves were obtained using either detection reagent).

[5] = biological target: T4, recombinant human PD-1 protein (human, UniProt Q15116 25-167, limits assumed); assay: Biacore, antibody captured on protein A, monomeric recombinant human PD-1 as analyte
T4 construct: also called monomeric recombinant human PD-1

[6] = biological target: T5, recombinant cynomolgus PD-1 (cynomolgus); assay: ELISA on recombinant cynomolgus PD-1
T5 construct: also called cyno PD-1

recombinant mouse PD-1 = biological target: T6, recombinant mouse PD-1 (mouse, UniProt Q02242 25-167, limits assumed); assay: ELISA, detection with anti-human IgG4 heavy chain or anti-human lambda light chain
T6 sequence (looked up): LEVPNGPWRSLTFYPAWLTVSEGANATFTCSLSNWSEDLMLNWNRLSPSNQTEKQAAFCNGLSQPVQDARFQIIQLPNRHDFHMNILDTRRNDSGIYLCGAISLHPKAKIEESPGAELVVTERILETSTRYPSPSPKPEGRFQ

[7] = biological target: T7, recombinant human PD1 (His-tagged) protein (human, UniProt Q15116 25-167, limits assumed); assay: SPR, antibody captured on anti-human Fc, PD1/His as analyte, 1:1 Langmuir fit
T7 construct: not shown: His tag
Method: Anti-human Fc antibody was immobilized on CMS sensor chip with approximately 1000 RU. Antibodies (about 10 μg/ml) were captured for 60 s at a flow rate 10 μl/min.PD1/His was serially diluted in running buffer (HBS-EP). All measurements were conducted with a flow rate of 30 μL/min. Surfaces were regenerated with 3M MgCl₂ for 60 s. A 1:1 (Langmuir) binding model was used to fit the data.

[8] = biological target: T4, recombinant human PD-1 protein; assay: ELISA on recombinant human PD-1
[9] = biological target: T2, human PD-1 expressed on cells; assay: flow cytometry on anti-CD3-activated PBMC
Method: (§3) This example illustrates in vitro data for cellular binding EC50 measurements. […] The experimental procedure is as follows. Peripheral blood mononuclear cells (PBMC) were added to the wells of a 24 well plate and stimulated anti-CD3 (3 ng/ml). After three days of culture the cells were harvested and added to the wells of wells of a 96-well, v-bottom plate in 100 μl FACS Buffer (PBS+2% FBS). A twelve point, 3× dilution curve of each anti-PD-1 antibody was made in FACS Buffer starting at 10 μg/ml (0.6×10⁻⁷M). Cells were spun down, washed twice with FACS Buffer, and then resuspended in 25 μl of antibody solution in triplicate. After 0.5 hr incubation, cells were washed 1× with FACS Buffer and resuspended in 50 μl PE-conjugated, goat anti-human IgG (γ-chain specific) secondary antibody (Southern Biotech Cat #2040-09). Cells were further incubated for 0.5 hr and then washed 1× with FACS Buffer. Cells were resuspended in 25 μl FACS Buffer and the median fluorescence intensity in the FL2-H channel was determined using the Intellicyt HTFC flow cytometer. Data was analyzed and plotted in Graph Pad Prism using non-linear regression fit.

[10] = biological target: T2, human PD-1 expressed on cells; assay: flow cytometry on anti-CD3-activated PBMC; remark: listed apart in the source
Method: as §3

[11] = biological target: T7, recombinant human PD1 (His-tagged) …; assay: BIAcore, mAb captured on anti-human Fc, His-tagged human PD1 as analyte

T7 sequence (Q15116 25-167 limits assumed): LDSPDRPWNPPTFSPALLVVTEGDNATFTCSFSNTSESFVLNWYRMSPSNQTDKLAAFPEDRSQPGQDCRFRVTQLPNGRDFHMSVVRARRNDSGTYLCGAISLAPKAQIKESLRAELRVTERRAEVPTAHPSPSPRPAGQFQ
T4 sequence (Q15116 25-167 limits assumed): as above
T1 sequence (Q9NZQ7 19-290 limits assumed): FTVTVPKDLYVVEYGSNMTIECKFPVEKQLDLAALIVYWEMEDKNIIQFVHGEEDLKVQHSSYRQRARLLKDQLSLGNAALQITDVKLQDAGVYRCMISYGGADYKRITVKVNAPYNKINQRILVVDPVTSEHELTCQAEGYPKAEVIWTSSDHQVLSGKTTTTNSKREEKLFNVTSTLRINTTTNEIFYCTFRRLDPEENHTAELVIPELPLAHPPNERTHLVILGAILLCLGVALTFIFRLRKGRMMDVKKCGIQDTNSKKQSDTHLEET
T2 sequence (Q15116 25-288): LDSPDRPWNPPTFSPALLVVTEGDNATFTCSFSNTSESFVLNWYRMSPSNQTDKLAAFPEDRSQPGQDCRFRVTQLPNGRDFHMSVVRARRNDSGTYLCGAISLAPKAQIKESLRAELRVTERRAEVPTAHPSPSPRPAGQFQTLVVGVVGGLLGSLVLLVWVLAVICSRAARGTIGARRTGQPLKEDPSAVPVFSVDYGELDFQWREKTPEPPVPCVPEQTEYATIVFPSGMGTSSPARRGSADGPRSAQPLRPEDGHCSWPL
Chain of human CTLA-4 (recombinant) (P16410 36-161 limits assumed): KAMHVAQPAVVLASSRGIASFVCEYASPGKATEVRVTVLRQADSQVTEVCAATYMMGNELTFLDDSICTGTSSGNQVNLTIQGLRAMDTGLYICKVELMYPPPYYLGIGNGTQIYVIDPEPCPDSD

B1: RG1B3 (IgG) (antibody, V domains shown)
VH: QVQLVQSGAEVKKPGASVKVSCKASGYTFTSYGISWVRQAPGQGLEWMGWISAYNGNTNYAQKLQGRVTMTTDTSTSTAYMELRSLRSDDTAVYYCARGLYGDEDYWGQGTLVTVSS
VL: LPVLTQPPSVSEVPGQRVTISCSGGISNIGSNAVNWYQHFPGKAPKLLIYYNDLLPSGVSDRFSASKSGTSASLAISGLRSEDEADYYCAAWDDNLSAYVFATGTKVTVL
notes: Detected with anti-human IgG (gamma chain specific); also called PD1 RG1B3
[1]
  binding result: no binding (tested: 50 µg/ml (3.33×10^-7M) top concentration)
[2]
  EC50: 0.183 nM

B2: RG4A6 (IgG) (antibody, V domains shown)
VH: EVQLVESGGGLVQPGGSLRLSCAASGFTFSSYWMHWVRQAPGKGLEWVSSISSSSSYIYYADSVKGRFTISRDNAKNSLYLQMNSLRAEDTAVYYCARDTLEYYGSGILENAMGYYGMDVWGQGTTVTVSS
VL: not shown
notes: Detected with anti-human IgG (gamma chain specific); also called PD1 RG4A6
[1]
  binding result: no binding (tested: 50 µg/ml (3.33×10^-7M) top concentration)
[2]
  EC50: 0.779 nM

B3: RG2H10 (IgG) (antibody, V domains shown)
VH: QVQLQQSGPGLVRPSQTLSLSCDISGDSVSSNSATWNWIRQSPSRGLEWLGRTFYRSKWYHDYALSVKSRITINPDTSKNQFSLQLNSVSPGDTAVYFCVREDIDGRLDYWGQGTLVTVSS
VL: QPVLTQPASVSGSPGQSITISCTGTSSDVGGYNYVSWYQQHPGKAPKLMIYDVSNRPSGVSNRFSGSKSGNTASLAITGLQSDDDADYYCSAWDDSLNADVFGGGTKLTVL
notes: Detected with anti-human IgG (gamma chain specific); also called PD1 RG2H10
[1]
  binding result: no binding (tested: 50 µg/ml (3.33×10^-7M) top concentration)
[2]
  EC50: 2.8 nM

B4: anti-PD-1 antibody RG1H10 (IgG, isotype not stated in the assay) (antibody, V domains shown)
VH: QVQLVQSGSELKKPGASVKISCKASGYIFSDNGVNWVRQAPGQGLEWMGWINTKIGNPTYAQGFTGRFVFSLDTSISTTYLQISSLQAGDTAVYYCAREHDYYYGMDVWGQGTTVTVSS
VL: QSALTQPPSASGSPGQSVTISCTGTSSDVGGYNYVSWYQHHPGKAPKLMIYEVSKRPSGVPDRFSGSKSAITASLTISGLLTEDEADYYCSAWDDSLNADVFGGGTKVTVL
notes: also called PD1 RG1H10
Human CD28 (recombinant)
  binding result: no binding
Human ICOS (recombinant)
  binding result: no binding
[3]
  binding result: no binding
[4]
  EC50: 25.8 nM
  fold maximal binding against competitor 1: ~2 fold lower
[5]
  Kd: 3.2 nM
  fold affinity against competitor 3: ~10 fold
[6]
  EC50: 0.84 nM
Recombinant mouse PD-1
  binding result: no binding
[7]
  Ka: 1.25e+09 M⁻¹
  Kd: 0.802 nM
  koff: 0.00104 s⁻¹
  kon: 1.3e+06 M⁻¹ s⁻¹
[1]
  binding result: no binding (tested: 50 µg/ml (3.33×10^-7M) top concentration)
[2]
  EC50: 0.0358 nM
[8]
  EC50: 0.391 nM

B5: GA2 (IgG) (antibody, V domains shown)
VH: B4 VH with I76V
VL: QPVLTQPPSASGTPGQRVTISCSGSSSNIGTNTVNWYQQVPGTAPKLLIHGNDQRPSGVPDRFSGSKSDTSASLAITGLQSDDDADYYCSAWDDSLNADVFGGGTKLTVL
notes: Detected with anti-human IgG (gamma chain specific); also called PD1 GA2
[1]
  binding result: no binding (tested: 50 µg/ml (3.33×10^-7M) top concentration)
[2]
  EC50: 0.202 nM

B6: RG1H10 (IgG1) (antibody, V domains shown)
VH: B4 VH
VL: B4 VL
notes: IgG1; also called RG1H10 as immunoglobulin gamma 1
[9]
  EC50: 0.67 nM
[10]
  EC50: 0.67 nM
[11]
  Kd: 1.3 nM
  koff: 0.001 s⁻¹
  kon: 750000 M⁻¹ s⁻¹

B7: RG1H10 (IgG4 S228P) (antibody, V domains shown)
VH: B4 VH
VL: B4 VL
notes: also called RG1H10 as immunoglobulin gamma 4 with hinge mutation S228P
[9]
  EC50: 0.047 nM
[10]
  EC50: 0.047 nM
[11]
  Kd: 1.6 nM
  koff: 0.0014 s⁻¹
  kon: 880000 M⁻¹ s⁻¹

B8: SH-A4 (IgG) (antibody, V domains shown)
VH: B4 VH with I76V
VL: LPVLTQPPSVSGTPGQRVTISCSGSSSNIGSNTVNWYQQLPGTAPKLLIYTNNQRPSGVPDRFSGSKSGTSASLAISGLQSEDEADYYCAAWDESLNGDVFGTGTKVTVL
notes: Detected with anti-human IgG (gamma chain specific); also called PD1 SHA4
[1]
  binding result: no binding (tested: 50 µg/ml (3.33×10^-7M) top concentration)
[2]
  EC50: 0.115 nM

B9: H7 (IgG) (antibody, V domains shown)
VH: B4 VH with I76V
VL: QSVLTQPASVSGSPGQSVTISCTGSSSDVGAYNFVSWYRQYPGKAPKLLIYEVNKRPSDVPDRFSGSKFGNTASLTVSGLQADDEADYYCSSYAGSTDVFGTGTKVTVL
notes: Detected with anti-human IgG (gamma chain specific); also called PD1 H7
[1]
  binding result: no binding (tested: 50 µg/ml (3.33×10^-7M) top concentration)
[2]
  EC50: 0.223 nM
